The source of these data is US20220290162.

Bounds are passed on as bounds.

The data set addresses Bxb1 serine integrase with ssrA degradation tag (Mycobacteriophage Bxb1?) (UniProt Q9B086). Nature of the data set: cell_activity. The settings on record: attB x attP inversion of P7 promoter, switched cells 42 C vs 37 C; E. coli Nissle.

Turning to “GGGTTTGTACCGTACACCACTGAGACCGCGGTGGTTGACCAGACAAACCACGA (double strand) [Bxb1 attP]”, the activity was above 100 fold.

As for “TCGGCCGGCTTGTCGACGACGGCGGTCTCCGTCGTCAGGATCATCCGGGC (double strand) [Bxb1 attB]”, the activity was above 100 fold.
